{
  "source": "patent US20210363526A1",
  "about": "“Use of Non-Coding Nucleic Acid for Crop Improvement and Protection Against Microbes” (University of Kentucky Research Foundation, priority 2020, published 2021)",
  "key": {"[1]": {"tested_on": "Pseudomonas syringae DC 3000", "experiment": "SAR (systemic acquired resistance) assay: local treatment, distal leaves challenged with virulent pathogen", "assay_type": "in vivo, Arabidopsis", "conditions": "for SAR in ago1 plants: localized application to ago1 plants; for SAR in ago1 plants / SAR in ago7 plants / SAR in tas3a mutant plants: SA 500 μM, Pip 1000 μM, G3P 100 μM, DC3000 48 h later; for SAR in ago7 plants: localized application to ago7 plants; for SAR in tas3a mutant plants: localized application to tas3a plants, AzA 1000 μM", "procedure": "Pathogen infection and collection of phloem exudate—Inoculations with Pseudomonas syringae DC 3000 were conducted as described before. The bacterial cultures were grown overnight in King's B medium containing rifampicin and/or kanamycin. For analysis of SAR, the primary leaves were inoculated with MgCl2 or the avr bacteria (10^7 cfu ml^−1) and, 48 h later, the systemic leaves were inoculated with vir bacteria (10^5 cfu m1^−1). Unless noted otherwise, samples from the systemic leaves were harvested at 3 dpi. Petiole exudates were collected in diethyl pyrocarbonate (DEPC) treated water as described earlier. […] PEX RNA was extracted using the TRIzol reagent, quantified using nanodrop and cDNA synthesized from PEX RNA was evaluated for contamination with leaf RNA by assaying for amplification of Rubisco genes. Each sample was run in triplicates and UBC9 expression levels were used as internal control for normalization. Cycle threshold values were calculated by SDS 2.3 software.\nChemical and RNA treatments—SA, G3P, AzA, and Pip treatments were carried out by using 500 μM, 100 μM, 1000 μM, and 1000 μM solutions, respectively. TAS3a RNA was suspended at a concentration of 0.0075-75 ng/μ1 of DEPC water and ˜40 μl was infiltrated per leaf. AzA was prepared in methanol and diluted in water. SA, G3P and Pip were prepared and diluted in water. All dilutions were freshly prepared prior to performing biological experiments.\nStatistics and reproducibility—For pathogen assays, ˜16 plants/ genotype/treatment were analyzed in a single experiment. At least 3-4 technical replicates/genotype/treatment were plated. For metabolite quantification, ˜12 plants/genotype/treatment were analyzed in each experiment. Unless otherwise mentioned error bars indicate SD."}, "Pip": {"tested_on": "Pip", "experiment": "Pip quantification after localized TAS3a application", "assay_type": "in vivo, Arabidopsis", "conditions": "Col-0, localized application"}, "G3P": {"tested_on": "G3P", "experiment": "G3P quantification after localized TAS3a application", "assay_type": "in vivo, Arabidopsis", "conditions": "Col-0, localized application, 24 h"}, "isolated protoplasts": {"tested_on": "isolated protoplasts", "experiment": "Uptake assay of 32P-TAS3a555 into isolated protoplasts", "assay_type": "cell-based, Arabidopsis", "conditions": "protoplasts incubated with 2 μM 32P-TAS3a555 for 1 h", "source_text": "(§1) FIGS. 9A-H show images and graphs illustrating that TAS3a RNA contains two overlapping open reading frames. (A) Nucleotide sequence of mature TAS3a RNA (SEQ ID NO: 1). Region shaded in purple and gray indicates overlapping open reading frames. Nucleotides shaded in yellow are miR390-AGO7 targeting sites on TAS3a transcript. Arrows indicate position of forward and reverse primers used for quantitative RT-PCR. Residues in red indicate alternate polyadenylation sites. (B) Real-time quantitative RT-PCR showing relative expression levels of ARF3 in Col-0 plants treated with buffer or Tas3a555 for 24 h. The error bars indicate SD (n=4). Results are representative of two independent experiments. Asterisks denote a significant difference (t test, P<0.0001). (C) Uptake assays showing percentage of ^32P-TAS3a555 transported into isolated protoplasts. Fresh protoplasts (10^6/ml) were incubated with 2 μM ^32P-TAS3a555 for 1 h, analyzed microscopically before and after four washes and quantified for the amount of radiolabel. The experiment was repeated three times with similar results. (D) RNA gel electrophoresis of in vitro synthesized TAS3a transcripts used in this study. (E) Typical morphological phenotypes of DC3000 inoculated distal leaves of Col-0 and tas3a plants. […]"}, "SA": {"tested_on": "SA", "experiment": "SA quantification after localized TAS3a application", "assay_type": "in vivo, Arabidopsis", "conditions": "Col-0, localized application"}, "[2]": {"tested_on": "auxin responsive factor (ARF) 3", "experiment": "Real-time quantitative RT-PCR of ARF3 expression after TAS3a transcript application", "assay_type": "in vivo, Arabidopsis", "conditions": "Col-0 plants, exogenous application, 24 h", "source_text": "as §1, with “(C) Uptake assays showing percentage of ^32P-TAS3a555 transported into isolated protoplasts.” left out, “radiolabel.” for “radiolabel. The experiment was repeated three times with similar results. (D) RNA gel electrophoresis of in vitro synthesized TAS3a transcripts used in this study. (E) Typical morphological phenotypes of DC3000 inoculated distal leaves of Col-0 and tas3a plants.”\nRNA extraction, quantitative real-time PCR, and in vitro transcription—Small-scale extraction of RNA from two or three leaves (per sample) was performed with the TRIzol reagent (Invitrogen, CA), following the manufacturer's instructions. RNA quality and concentration were determined by gel electrophoresis and determination of A260. […] Quantitative RT-PCR was carried out as described before. […] Cycle threshold values were calculated by SDS 2.3 software."}, "ROS": {"tested_on": "ROS", "experiment": "ROS (H2O2, DAB staining) after localized TAS3a application", "assay_type": "in vivo, Arabidopsis", "conditions": "Col-0, localized application", "procedure": "FIGS. 12A-D show graphs and images illustrating that exogenous application of TAS3a induces G3P but not SA, Pip, or ROS. (A) SA (left panel) and SAG (right panel) levels in Col-0 plants infiltrated with MgCl2, avrRpt2 or TAS3a transcripts. Leaf samples were collected 24 and 48 h post treatments. The error bars indicate SD (n=4). Asterisks denote a significant difference with respective mock-inoculated samples (t test, P<0.0001). (B) Pip levels in local tissues of Col-0 plants infiltrated with MgCl2 (mock), avrRpt2 or TAS3a transcripts. The leaves were sampled 48 h post treatments. Asterisks denote a significant difference with mock (t test, P<0.0001). The experiment was repeated two times with similar results. (C) H2O2 levels in local tissues of Col-0 plants after mock (MgCl2), pathogen (avrRpt2) or TAS3a treatments. The leaves were sampled 24 h post treatments and stained with DAB (3,3-diaminobenzidine). The experiment was repeated two times with similar results. (D) G3P levels in local tissues of water or 555 bp TAS3a transcript treated Col-0 plants. The leaves were sampled 24 h post treatments and the experiment was repeated two times with similar results. Asterisks denote a significant difference with respective mock-inoculated samples (t test, P<0.001)."}},
  "note": "Entries after “also recorded” stand apart in the source; their conditions may differ.",
  "data": [
    {"molecule": "O=C(O)C1CCCCN1", "note": "(stereo not drawn) [Pip, pipecolic acid]", "values": [
      {"measurement": "SAR in ago1 plants", "setting": "[1]", "value": "unable to restore SAR"},
      {"measurement": "SAR in ago7 plants", "setting": "[1]", "value": "unable to restore SAR"},
      {"measurement": "SAR in tas3a mutant plants", "setting": "[1]", "value": "did not restore SAR"}
    ]},
    {"molecule": "O=C(O)CCCCCCCC(=O)O", "note": "[AzA, azelaic acid]", "values": [
      {"measurement": "SAR in tas3a mutant plants", "setting": "[1]", "value": "did not restore SAR"}
    ]},
    {"molecule": "O=C(O)c1ccccc1O", "note": "[SA, salicylic acid]", "values": [
      {"measurement": "SAR in ago1 plants", "setting": "[1]", "value": "unable to restore SAR"},
      {"measurement": "SAR in ago7 plants", "setting": "[1]", "value": "unable to restore SAR"},
      {"measurement": "SAR in tas3a mutant plants", "setting": "[1]", "value": "did not restore SAR"}
    ]},
    {"molecule": "O=P(O)(O)OCC(O)CO", "note": "(stereo not drawn) [G3P, glycerol-3-phosphate]", "values": [
      {"measurement": "SAR in ago1 plants", "setting": "[1]", "value": "unable to restore SAR"},
      {"measurement": "SAR in ago7 plants", "setting": "[1]", "value": "unable to restore SAR"},
      {"measurement": "SAR in tas3a mutant plants", "setting": "[1]", "value": "did not restore SAR"}
    ]},
    {"molecule": "TAS3a transcript: exogenously applied in vitro transcribed TAS3a RNA, length not stated at the place (figure legends: 555 nt) (nucleic acid, listed as Arabidopsis thaliana) AUCCCACCGUUUCUUAAGACUCUCUCUCUUUCUGUUUUCUAUUUCUCUCUCUCUCAAAUGAAAGAGAGAGAAGAGCUCCCAUGGAUGAAAUUAGCGAGACCGAAGUUUCUCCAAGGCAUUAAGGAAAACAUAACCUCCGUGAUGCAUAGAGAUUAUUGGAUCCGCUGUGCUGAGACAUUGAGUUUUUCUUCGGCAUUCCAGUUUCAAUGAUAAAGCGGUGUUAUCCUAUCUGAGCUUUUAGUCGGAUUUUUUCUUUUCAAUUAUUGUGUUUUAUCUAGAUGAUGCAUUUCAUUAUUCUCUUUUUCUUGACCUUGUAAGGCCUUUUCUUGACCUUGUAAGACCCCAUCUCUUUCUAAACGUUUUAUUAUUUUCUCGUUUUACAGAUUCUAUUCUAUCUCUUCUCAAUAUAGAAUAGAUAUCUAUCUCUACCUCUAAUUCGUUCGAGUCAUUUUCUCCUACCUUGUCUAUCCCUCCUGAGCUAAUCUCCACAUAUAUCUUUUGUUUGUUAUUGAUGUAUGGUUGACAUAAAUUCAAUAAAGAAGUUGACGUUUUUCU", "values": [
      {"measurement": "Pip accumulation", "setting": "Pip", "value": "did not induce"},
      {"measurement": "Pip accumulation", "setting": "Pip; listed as TAS3a", "value": "not"},
      {"measurement": "G3P levels", "setting": "G3P", "value": "did increase"},
      {"measurement": "G3P levels", "setting": "G3P; listed as TAS3a", "value": "induces"},
      {"measurement": "uptake in isolated protoplasts", "setting": "isolated protoplasts", "value": "confirmed by uptake"},
      {"measurement": "SA accumulation", "setting": "SA", "value": "did not induce"},
      {"measurement": "SA accumulation", "setting": "SA; listed as TAS3a", "value": "not"},
      {"measurement": "expression of TAS3a target gene ARF3", "setting": "[2]", "value": "suppressed"},
      {"measurement": "ROS accumulation", "setting": "ROS", "value": "did not induce"},
      {"measurement": "ROS accumulation", "setting": "ROS; listed as TAS3a", "value": "not"},
      {"measurement": "SAR induction in wild-type plants", "setting": "[1]; localized application to wild-type Col-0, virulent DC3000 inoculated on distal leaves 48 h post-local treatment, transcripts 0.039 nmol/ml, Tasi-ARFs 1 μM (figure legends)", "value": "confer robust SAR; also recorded: able to induce SAR"}
    ]}
  ]
}
